Reference: US20240361316A1 (ORASURE TECHNOLOGIES, published 2024)

Target: recombinant SARS-CoV-2 Spike 1 subunit (S1), Alpha S1 construct 1 (SARS-CoV-2 (WHO Alpha (WT) variant, …, UniProt P0DTC2 14-674))

B1: recombinant biotinylated human angiotensin-converting enzyme 2 (ACE2-biotin), construct hACE-GS-6xHIS (receptor)
chain: STIEEQAKTFLDKFNHEAEDLFYQSSLASWNYNTNITEENVQNMNNAGDKWSAFLKEQSTLAQMYPLQEIQNLTVKLQLQALQQNGSSVLSEDKSKRLNTILNTMSTIYSTGKVCNPDNPQECLLLEPGLNEIMANSLDYNERLWAWESWRSEVGKQLRPLYEEYVVLKNEMARANHYEDYGDYWRGDYEVNGVDGYDYSRGQLIEDVEHTFEEIKPLYEHLHAYVRAKLMNAYPSYISPIGCLPAHLLGDMWGRFWTNLYSLTVPFGQKPNIDVTDAMVDQAWDAQRIFKEAEKFFVSVGLPNMTQGFWENSMLTDPGNVQKAVCHPTAWDLGKGDFRILMCTKVTMDDFLTAHHEMGHIQYDMAYAAQPFLLRNGANEGFHEAVGEIMSLSAATPKHLKSIGLLSPDFQEDNETEINFLLKQALTIVGTLPFTYMLEKWRWMVFKGEIPKDQWMKKWWEMKREIVGVVEPVPHDETYCDPASLFHVSNDYSFIRYYTRTLYQFQFQEALCQAAKHEGPLHKCDISNSTEAGQKLFNMLRLGKSEPWTLALENVVGAKNMNVRPLLNYFEPLFTWLKDQNKNSFVGWSTDGGGGSGGGGSHHHHHHH
modifications: biotinylated, 1-10 biotins per ACE2 [mole:mole]; positions not given
  EC50: 0.5 nM
